# Reference: patent US20180327746, “Alpha-AMYLASE-BINDING NUCLEIC ACID MOLECULE AND USE THEREOF” (NEC Solution Innovators, Ltd., published 2018)
# T1: alpha-amylase (Homo sapiens, UniProt P0DUB6 P0DUB6:16-511)
# T1 sequence: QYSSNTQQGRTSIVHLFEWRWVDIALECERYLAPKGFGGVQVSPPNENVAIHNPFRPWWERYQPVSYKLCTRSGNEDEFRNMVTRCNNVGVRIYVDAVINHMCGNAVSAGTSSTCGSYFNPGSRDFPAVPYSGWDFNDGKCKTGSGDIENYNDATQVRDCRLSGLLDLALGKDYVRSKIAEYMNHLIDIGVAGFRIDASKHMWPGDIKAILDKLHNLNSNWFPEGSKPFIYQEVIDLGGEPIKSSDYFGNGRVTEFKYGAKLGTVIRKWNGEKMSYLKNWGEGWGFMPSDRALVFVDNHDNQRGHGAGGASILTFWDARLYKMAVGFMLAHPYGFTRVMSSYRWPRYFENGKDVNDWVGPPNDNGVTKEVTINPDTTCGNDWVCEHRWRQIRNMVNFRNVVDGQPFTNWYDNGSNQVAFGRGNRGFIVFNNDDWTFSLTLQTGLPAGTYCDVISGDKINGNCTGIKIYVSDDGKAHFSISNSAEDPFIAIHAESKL
# T2: chromogranin A (CgA) (Homo sapiens, UniProt P10645 P10645:19-457)
# T2 sequence: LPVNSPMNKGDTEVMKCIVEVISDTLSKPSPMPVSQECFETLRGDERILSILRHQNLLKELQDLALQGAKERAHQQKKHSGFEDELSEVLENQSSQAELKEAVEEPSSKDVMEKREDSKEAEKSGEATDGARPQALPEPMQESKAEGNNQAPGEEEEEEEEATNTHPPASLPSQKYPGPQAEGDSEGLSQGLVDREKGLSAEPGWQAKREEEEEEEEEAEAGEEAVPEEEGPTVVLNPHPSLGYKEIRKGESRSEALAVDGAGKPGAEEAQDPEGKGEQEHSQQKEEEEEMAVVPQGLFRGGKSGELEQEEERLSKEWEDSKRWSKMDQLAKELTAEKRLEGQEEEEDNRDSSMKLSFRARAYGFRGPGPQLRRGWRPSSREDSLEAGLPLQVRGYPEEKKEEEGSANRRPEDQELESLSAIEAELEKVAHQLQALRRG
# B1: Amy_258KK10R8m2 (ssDNA)
# DNA: GGTTACGCCCAGGACACATTTCATTGATGGCATACTAAGGGTCGAGGAATTCGTAAGCTCGGTCTCCTCGGATAATCAAAAAAAAAAAAAAAAAAAA
# modifications: KK10 modified T (formula 2) at double-underlined T, i.e. T 3' of the 5' primer region
# B2: TYE665-AML1243KR8m1 (ssDNA)
# DNA: GGATACCTTAACGCCGCCTATTGTGAACGACGTGAATAGTGTTTGTGGGTCCGGAGTTGCACCCGTCTCGAAATC
# modifications: KS9 modified T (formula 1) at underlined T, i.e. T 3' of the 5' primer region
# B3: AML1243KR8m1s58_FW_s20 (ssDNA)
# DNA: TACCTTAACGCCGCCTATTGTGAACGACGTGAATAGTGTTTGTGGGTCCGGAGTTAAAAAAAAAAAAAAAAAAAA
# modifications: KS9 modified T (formula 1) at underlined T, i.e. T 3' of the 5' primer region
# B4: AML1243KR8m2 (ssDNA)
# DNA: GGATACCTTAACGCCGCCTATTGCTATGAGTAGTGTTTGTAGGTCTGGCATGCGAGTTGCACCCGTCTCGAAATCAAAAAAAAAAAAAAAAAAAA
# modifications: KS9 modified T (formula 1) at underlined T, i.e. T 3' of the 5' primer region
# B5: AML1243KR8m3 (ssDNA)
# DNA: GGATACCTTAACGCCGCCTATTGCGAGGTGTGGCTAGTCGTTATAGGTCCACCGAGTTGCACCCGTCTCGAAATCAAAAAAAAAAAAAAAAAAAA
# modifications: KS9 modified T (formula 1) at underlined T, i.e. T 3' of the 5' primer region
# B6: AML1243KR8m1_KS9-3_mini (ssDNA)
# DNA: GTGAACGACGTGAATAGTGTTTGTGGGTCCGGAGTTAAAAAAAAAAAAAAAAAAAA
# modifications: KS9 modified T (formula 1) at all T
# B7: AML1243KR8m2s49Fw_s15 (ssDNA)
# DNA: TAACGCCGCCTATTGCTATGAGTAGTGTTTGTAGGTCTGGCAAAAAAAAAAAAAAAAAAAA
# modifications: KS9 modified T (formula 1) at underlined T, i.e. T 3' of the 5' primer region
# B8: AML1243KR8m1 (ssDNA)
# DNA: GGATACCTTAACGCCGCCTATTGTGAACGACGTGAATAGTGTTTGTGGGTCCGGAGTTGCACCCGTCTCGAAATCAAAAAAAAAAAAAAAAAAAA
# modifications: KS9 modified T (formula 1) at underlined T, i.e. T 3' of the 5' primer region
# B9: Amy_258KK10R8m1 (ssDNA)
# DNA: GGTTACGCCCAGGACACATTTCAAAAGATGATGGCATACGTAAAGGGTCGAGGTAAGCTCGGTCTCCTCGGATAATCAAAAAAAAAAAAAAAAAAAA
# modifications: KK10 modified T (formula 2) at double-underlined T, i.e. T 3' of the 5' primer region
# B10: AML1243KR8m1s65_FW_s20 (ssDNA)
# DNA: TACCTTAACGCCGCCTATTGTGAACGACGTGAATAGTGTTTGTGGGTCCGGAGTTGCACCCGAAAAAAAAAAAAAAAAAAAA
# modifications: KS9 modified T (formula 1) at underlined T, i.e. T 3' of the 5' primer region
# How the values were obtained:
# alpha-amylase [1] = target: T1, alpha-amylase; assay: SPR; SPR buffer with 1 mM MgCl2, pH 7.4; Chi2 5.05; conditions: tags: none stated; commercial human alpha-amylase, Lee Biosolutions; label: 3' poly(dA)20 captured on biotin-poly(dT)20
# Experimental: (§1) Biotinylated poly(dT) at 5 μmol/L was injected to a flow cell of the sensor chip using ultrapure water (DDW), and the binding was allowed to proceed until the signal intensity (RU: Resonance Unit) reached about 900 RU. The biotinylated poly(dT) was prepared by biotinylating the 5′ end of 20-mer deoxythymidine. Then, the poly(dA)-added aptamer at 200 nmol/L was injected to the flow cell of the chip using an SPR buffer at a flow rate of 25 μL/min for 80 seconds, and the binding was allowed to proceed until the signal intensity reached about 800 RU. […] With 0 seconds being the start of the injection, the mean value of signal intensities from 115 seconds to 125 seconds was determined. […] Then, the value (B/A) obtained by dividing the protein binding measured value (B) by the aptamer immobilization measured value (A) was determined as a relative value (Relative Unit).
# (§2) The binding ability of the aptamers was analyzed by SPR in the same manner as in Example 1, except that the concentration of the α-amylase in the specimen was set to a plurality of values. The concentration was set to 20 nmol/L, 10 nmol/L, 5 nmol/L, 2.5 nmol/L, and 1.25 nmol/L. Then, from the results obtained by the SPR analysis, the kinetic parameter and the chi-squared value were calculated.
# alpha-amylase [2] = target: T1, alpha-amylase; assay: capillary electrophoresis; 200 nM aptamer, 2 uM amylase, 40 mM HEPES pH 7.5, 1 mM MgCl2; conditions: tags: none stated; commercial human alpha-amylase, Lee Biosolutions; label: 5' TYE665
# Experimental: (§3) Reaction solutions containing the labeled aptamer (SEQ ID NO: 1) were prepared. Each of the reaction solutions was subjected to CAE under the following conditions. The reaction solution was caused to migrate while separating the components therefrom, and the fluorescence at a maximum absorption wavelength (665 nm) of the fluorescent substance was measured. As the reaction solutions, the following four types of reaction solutions were used: a reaction solution 1 containing the labeled aptamer only; a reaction solution 2 containing the labeled aptamer and the α-amylase; a reaction solution 3 containing the labeled aptamer and the saliva; and a reaction solution 4 containing the labeled aptamer as the negative control and the saliva. In each of the reaction solutions, the concentration of the labeled aptamer was 200 nmol/L. In the reaction solution 2, the concentration of the α-amylase was 2 μmol/L. In the reaction solutions 3 and 4, the concentration of the saliva was 10%. The reminder of each of the reaction solutions was a buffer solution. The composition of the buffer solution was as follows: 40 mmol/L HEPES (pH 7.5), 125 mmol/L NaCl, 5 mmol/L KCl, and 1 mmol/L MgCl₂.
# chromogranin A (CgA) = target: T2, chromogranin A (CgA); assay: capillary electrophoresis specificity control; conditions: tags: N-terminal His-tag; full length, Creative BioMart CHGA-26904TH; label: 5' TYE665
# Experimental: as §3
# Preparation of the reaction solution 2 and the binding ability analysis by CAE were carried out in the same manner as in the above item (3), except that the labeled aptamers (SEQ ID NOs: 1, 2, 3, and 19) were used. Further, in order to examine the specificity of the labeled aptamers to the α-amylase, the binding ability analysis by CAE was performed in the same manner as in the case where the above-described reaction solution 2 was used, except that, instead of the α-amylase, human chromogranin A (CgA, recombinant full length protein, Creative BioMart, #CHGA-26904TH) or human IgA (secretory, Biomedicals, LLC-Cappel Products, #55905), each having a His-tag fused at the N terminus were used.
# alpha-amylase [3] = target: T1, alpha-amylase; assay: SPR; SPR buffer with 1 mM MgCl2, pH 7.4; Chi2 3.26; conditions: tags: none stated; commercial human alpha-amylase, Lee Biosolutions; label: 3' poly(dA)20 captured on biotin-poly(dT)20
# Experimental: as §1, §2
# alpha-amylase [4] = target: T1, alpha-amylase; assay: SPR; SPR buffer with 1 mM MgCl2, pH 7.4; Chi2 23.87; conditions: tags: none stated; commercial human alpha-amylase, Lee Biosolutions; label: 3' poly(dA)20 captured on biotin-poly(dT)20
# Experimental: as §1, §2
# alpha-amylase [5] = target: T1, alpha-amylase; assay: SPR; SPR buffer with 1 mM MgCl2, pH 7.4; Chi2 31.8; text says all Kd 17 nM or less; conditions: tags: none stated; commercial human alpha-amylase, Lee Biosolutions; label: 3' poly(dA)20 captured on biotin-poly(dT)20
# Experimental: Then, the poly(dA)-added aptamer at 200 nmol/L was injected to the flow cell of the chip using an SPR buffer at a flow rate of 25 μL/min for 80 seconds, and the binding was allowed to proceed until the signal intensity reached about 800 RU. […] Subsequently, the specimen was injected using the SPR buffer at a flow rate of 50 μL/min for 120 seconds, followed by washing performed by flowing the SPR buffer under the same conditions for 300 seconds. The concentration of the human α-amylase in the specimen was set to 400 nmol/L. Signal intensity measurement was performed concurrently with the injection of the specimen and the washing with the SPR buffer. With 0 seconds being the start of the injection, the mean value of signal intensities from 115 seconds to 125 seconds was determined. […] Then, the value (B/A) obtained by dividing the protein binding measured value (B) by the aptamer immobilization measured value (A) was determined as a relative value (Relative Unit).
# as §2
# alpha-amylase [6] = target: T1, alpha-amylase; assay: SPR; SPR buffer with 1 mM MgCl2, pH 7.4; Chi2 10.58; conditions: tags: none stated; commercial human alpha-amylase, Lee Biosolutions; label: 3' poly(dA)20 captured on biotin-poly(dT)20
# Experimental: as §1, §2
# alpha-amylase [7] = target: T1, alpha-amylase; assay: SPR; SPR buffer with 1 mM MgCl2, pH 7.4; Chi2 24.55; conditions: tags: none stated; commercial human alpha-amylase, Lee Biosolutions; label: 3' poly(dA)20 captured on biotin-poly(dT)20
# Experimental: as §1, §2
# alpha-amylase [8] = target: T1, alpha-amylase; assay: SPR; SPR buffer with 1 mM MgCl2, pH 7.4; Chi2 4.3; conditions: tags: none stated; commercial human alpha-amylase, Lee Biosolutions; label: 3' poly(dA)20 captured on biotin-poly(dT)20
# Experimental: as §1, §2
# alpha-amylase [9] = target: T1, alpha-amylase; assay: SPR; SPR buffer with 1 mM MgCl2, pH 7.4; Chi2 3.85; conditions: tags: none stated; commercial human alpha-amylase, Lee Biosolutions; label: 3' poly(dA)20 captured on biotin-poly(dT)20
# Experimental: as §1, §2
# alpha-amylase [10] = target: T1, alpha-amylase; assay: SPR; SPR buffer with 1 mM MgCl2, pH 7.4; Chi2 4.17; conditions: tags: none stated; commercial human alpha-amylase, Lee Biosolutions; label: 3' poly(dA)20 captured on biotin-poly(dT)20
# Experimental: as §1, §2
binder,measurement,setting,value
B1,Kd,alpha-amylase [1],2.3 nM
B2,binding result,alpha-amylase [2],binds
same,binding result,chromogranin A (CgA),no binding
B3,Kd,alpha-amylase [3],0.707 nM
B4,Kd,alpha-amylase [4],2.6 nM
B5,Kd,alpha-amylase [5],19.9 nM
B6,Kd,alpha-amylase [6],0.607 nM
B7,Kd,alpha-amylase [7],2.66 nM
B8,Kd,alpha-amylase [8],0.805 nM
B9,Kd,alpha-amylase [9],2.72 nM
B10,Kd,alpha-amylase [10],0.68 nM
